Experimental data taken from CN117820479A (BEILAI PHARMACEUTICAL CO LTD, dated 2024).

Assays:
[1] = biological target: IL-17RA and IL-17RC co-expressed on 293F-IL-17RA-IL-17Rc-ACT1-NFκB-Luc reporter cells (UniProt Q96F46); experiment: FACS on cells overexpressing IL-17RA and IL-17RC
[2] = biological target: IL-17A重组蛋白 (Human IL-17A重组蛋白, C端6×His标签) (human, UniProt Q16552 24-155, limits assumed); experiment: cell-based or functional assay
Biotin-IL-17A-His = biological target: T1, Biotin-IL-17A-His (UniProt Q16552 24-155, biotinylated (Biotin-IL-17A-His; site not stated)); experiment: ELISA: antibody coated at 2 ug/mL, Biotin-IL-17A-His titrated from 10 ug/mL in 5-fold steps (7 points), HRP-streptavidin, OD450
T1 construct: also called 靶蛋白; not shown: His tag
T1 sequence (Q16552 24-155 limits assumed): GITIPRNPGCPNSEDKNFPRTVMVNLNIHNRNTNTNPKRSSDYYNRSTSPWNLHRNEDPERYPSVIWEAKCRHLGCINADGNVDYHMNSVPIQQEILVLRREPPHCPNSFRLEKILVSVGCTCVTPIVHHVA

IL-17A重组蛋白 (Human IL-17A重组蛋白, C端6×His标签) (human, UniProt Q16552 24-155, limits assumed), sequence (Q16552 other isoform, or with tags, fused parts or gaps limits assumed): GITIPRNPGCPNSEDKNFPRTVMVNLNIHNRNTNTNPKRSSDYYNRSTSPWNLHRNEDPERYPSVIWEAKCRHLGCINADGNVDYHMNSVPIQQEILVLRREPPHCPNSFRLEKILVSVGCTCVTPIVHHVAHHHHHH

Row | Molecule | 阳性率 [1] [%] | IC50, 阻断Human IL-17A蛋白激活293F-IL-17RA-IL-17Rc-ACT1-NFκB-Luc (luciferase reporter) [2] [µg/mL] | EC50 (Biotin-IL-17A-His) [µg/mL]
1 | IL-17A重组蛋白 (Human IL-17A重组蛋白, C端6×His标签) (from UniProt Q16552 24-155) (ligand) | > 90 | – | –
2 | Ixekizumab (阳性对照抗体) (antibody, human IgG4 S228P, kappa, V domains shown, Made in house from the variable regions cloned into pcDNA3.4-hIgG4 and pcDNA3.4-hIgKc vectors; also called 对照抗体Ixekizumab; 阳性抗体) VH: QVQLVQSGAEVKKPGSSVKVSCKASGYSFTDYHIHWVRQAPGQGLEWMGVINPMYGTTDYNQRFKGRVTITADESTSTAYMELSSLRSEDTAVYYCARYDYFTGTGVYWGQGTLVTVSS VL: DIVMTQTPLSLSVTPGQPASISCRSSRSLVHSRGNTYLHWYLQKPGQSPQLLIYKVSNRFIGVPDRFSGSGSGTDFTLKISRVEAEDVGVYYCSQSTHLPFTFGQGTKLEIKR | – | 1.36 | 10.1
3 | 串联抗体G12-1-F8 (IL-17A特异性串联抗体) (Fc fusion) EVQLVESGGGLVQPGGSLRLSCVAWGFSFSIYSVNWYRQAPGKERELVAGITKGGLKDYADSVKGRFTISRDNAKNAVYLRMNMLKPEDTAVYYCNAGRENGYWGQGTQVAVSTGGGGSGGGGSGGGGSEVQLVESGGGLVQPGGSLRLSCAASGFSIHIYAMGWYRQAPGKQRELVATITRGGVTNNADSVKGRFTISRDNAKNTAYLQMNSLKPEDTAVYYCNAGGTNGGYWGQGTQVTVSS | – | 0.759 | 2.42
